Measured values published in article PMC5663709 (Scientific Reports, 2017).

Key:
[1] = biological target: recombinant hemagglutinin (HA) trimer of H1N1 A/California/07/2009, ectodomain (Influenza A virus A/California/07/2009 …, UniProt C3W5X2); test: ELISA; conditions: both partners purified
[2] = biological target: purified monomeric HA of H1N1 CA/09 (thrombin-digested ectodomain) (Influenza A virus A/California/07/2009 …, UniProt C3W5X2); test: crystal structure; conditions: both partners purified

B1: S40 IgG (antibody, V domains shown)
VH: EVQLVESGGGLVQPGGSLRLSCAASGFTIGDFGIHWVRQAPGKGLEWVAGIWPFGGYTYYADSVKGRFTISADTSKNTAYLQMNSLRAEDTAVYYCARFVNWDGDYMDYWGQGTLVTVSS
VL: DIQMTQSPSSLSASVGDRVTITCRASQDVGFYVAWYQQKPGKAPKLLISWSSYLYSGVPSRFSGSGSGTDFTLTISSLQPEDFATYYCQQYYNYPLTFGQGTKVEIK
notes: copies: 2 + 2
- binding result [1]: binds

B2: S40 Fab (Fab, V domains shown)
VH: B1 VH
VL: B1 VL
- binding result [2]: binds
